In the nanobody polyreactivity screen of Harvey et al. (2022):

Assay: yeast display, Sf9 membrane polyspecificity reagent, FACS + sequencing; frameworks hold sequencing errors
How it was run: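 Polyreactivity labels are assigned by the sorting gate from which each nanobody was recovered. The gates were low and high (top ~1%), set on anti-HA fluorescence for expression and streptavidin fluorescence for reagent binding. Before sorting, galactose-induced (36–48 hours) yeast display cells were stained for 1 hour at 4 °C with 10% biotinylated, detergent-solubilized Sf9 membrane reagent.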

Row | Sequence | polyreactivity (PSR sort gate)
1 | QVQLVESGGGLVQAGGSLRLSCAASGITIYKYAMGWYRQAPGKERELVAAITRGGSTYYADSVKGRFTISRDNAKNSVYLQMNSLKPEDTAVYYCNKVYHWQTPGFGYGYWGQGTQVTVSS | high polyreactivity
2 | QVQLVESGGGLVQAGGSLRLSCAASGITLEVYAMGWYRQAPGKERELVAAITDSGGRTYYADSVKGRFTISRDNAKNTVYLQMNSLKPEDTAVYYCAADDTRVYGAGEYWGQGTQVTVSS | low polyreactivity
3 | QVQLVESGGGLVQAGGSLRLSCAASGITLGYYAMGWYRQAPGKERELVAAISYRGGNTYYADSVKGRFTISRDNAMKTVYLQMNSLKPEDSAVYYCAAYDEYYGYDYWGQGTQVTVSS | low polyreactivity
4 | QVQLVESGGGLVQAGGSLRLSCAASGITLKKYAMVWYRQAPGKERELVAAISIRGTSTYYADSVKGRFTISRDNAKNSVFLQMNSLKPEDTAVYYFAALYVVGDVRSGYWGQCTQVTVSS | high polyreactivity
5 | QVQLVESGGGLVQAGGSLRLSCAASGITLLGNTMGWYRQAPGKERELVAAIRTNSGRTYYADSVKGRFTISRDNAKNTVYLQMNSLKPEDTAVYYCAKRYFSYLGREMDYWGQGTQVTVSS | high polyreactivity
6 | QVQLVESGGGLVQAGGSLRLSCAASGITLLYYAMGWYRQAPGKERELVAVIDWSGGDTYYADSVKGRFTISRDNAKNTVYLQMNSLKPEDTAVYYCARGSRLVYRRSGFDYWGQGTQVTVSS | low polyreactivity
7 | QVQLVESGGGLVQAGGSLRLSCAASGITLNGYVMRWYRQAPGKEREFVAVISSRGGSTYYADSVKGRFTISRDNAKNTVYLQMNSLKPEDTAVYYCAARYVREYNYWGQGTQVTVSS | high polyreactivity
8 | QVQLVESGGGLVQAGGSLRLSCAASGITLNRNAMGWYRQAPGKERELVARISRRGGTTYYADSVKGRFTISRDNAKNTVYLQMNSLKPEDTAVYYCNAGPYGGNPFDYWGQGTQVTVSS | high polyreactivity
9 | QVQLVESGGGLVQAGGSLRLSCAASGITLPVYGMGWYRQAPGKERELVAVIDIVGITNYADSVKGRFTISRDNAKNTVYLQMNSLKPEDTAVYYCAKRYVDLADGGEYYYWGQGTQVTVSS | low polyreactivity
10 | QVQLVESGGGLVQAGGSLRLSCAASGITLRRNAMGWYRQAPGKERELVAAISKSGGRTYYADSVKGRFTISRDHAKNTVYLQMNSLKPEDTAVYYCAADVPWAASDYWGQGTQVTVSS | high polyreactivity
11 | QVQLVESGGGLVQAGGSLRLSCAASGITLRYYTMGWYRQPPGKERELVADISYRGGSTTYADSVKGRFTISRDNAKNTVYLQMNSLKPEDTAVYYCNARKRTFPSRSIGGDYWGQGTQVTVSS | high polyreactivity
12 | QVQLVESGGGLVQAGGSLRLSCAASGITLSIYAMGWYRQAPGKERELVAAINGNGGSTYYADSVKGRFTISRDNAKNTVYLQMNSLKPEDTAVYYCAVTDYVYEHDDYWGQGTQVTVSS | low polyreactivity
13 | QVQLVESGGGLVQAGGSLRLSCAASGITLTKNAMGWYRQAPGKERELVAGITRGSRTNYADSVKGRFTISRDNAKNTVYLQMNSLKPEDTAVYYCAASYGPYRGPVGGSKMYYWGQGTQVTVSS | high polyreactivity
14 | QVQLVESGGGLVQAGGSLRLSCAASGITLTKNAMGWYRQAPGKERELVAGITRGSRTNYADSVKGRFTISRDNAKNTVYLQMNSLKPEDTAVYYCAASYWPYRGPVGGSKMYYWGQGTQVTVSS | high polyreactivity
15 | QVQLVESGGGLVQAGGSLRLSCAASGITLTRYAMGWYRQAPGKDRELVAAISTGGGSTYYADSVKGRFTISRDNAKNTVYLQMNSLKPEDTAVYYCAARIRFARGYPITRTYDYWGQGTQVTVSS | high polyreactivity
16 | QVQLVESGGGLVQAGGSLRLSCAASGITLVSYARGWYRQAPGKERELVAAISWSGGRTFYADSVKGRFTISRDNAKNTVYLQMNRLKPEDTAVYYCNTAQYPYFYSHVSYPHDYWGQGTQVTVSS | high polyreactivity
17 | QVQLVESGGGLVQAGGSLRLSCAASGITLYEYAMGWYRQAPGKERELVAAMSTSGGRTRYADSVKGRFTISRDNAKNTVYLQMNSLKPEDTAVYYCNRLYGPGFKSVYGYDYWGQGTQVTVSS | high polyreactivity
18 | QVQLVESGGGLVQAGGSLRLSCAASGITLYRYAMGWYRLAPGKERELVADISSGGGTTYYADSVKGRFTISRDNAKNTVYLQMNSLKPEDTAVYYCAADYGFRYPLYEFWGQGTQVTVSS | low polyreactivity
19 | QVQLVESGGGLVQAGGSLRLSCAASGITPDYAMGWYRQAPGTERELVAAITWSGGRTYYADSVKGRFTISRDNAKNTVYLQMNSLKPEDTAVYYCAAEHYLGYDYWGQGTQVTVSS | low polyreactivity
20 | QVQLVESGGGLVQAGGSLRLSCAASGITSFFYDMGWYRQAPGKERELVAGISSGGSTNYADSVKGRFTISRDNAKNTVYLQMNSLKPEDTAVSYCAKDYPHTVSLGEYDYWGQGTQVTVSS | high polyreactivity
21 | QVQLVESGGGLVQAGGSLRLSCAASGITSHWYVMGWYRQAPGKERELVAAINSSGGRTSYADSVKGRFTISRDNAKNTVYLQMNSLKPEDTAVYYCAAGYTHSYFLGATGKVDYWGQGTQVTVSS | low polyreactivity
22 | QVQLVESGGGLVQAGGSLRLSCAASGITSPSYAMGWYRQAPGKERELVAAISKNGVRTYYADSVKGRFTISRDNAKNTVYLQMNSLKPEDTAVYYCAARYNPLYATLYRRMDYWGQGTQVTVSS | high polyreactivity

Row | Sequence | polyreactivity (PSR sort gate)
23 | QVQLVESGGGLVQAGGSLRLSCAASGITTTVYAMGWYRQAPGKERELVAGISWSTSSTYYADSVKGRFTISRDNAKNTVYLQMNSLKPEDNAVYYCAVYTITGRVLRQGPLYRHYYWGQGTQVTVSS | high polyreactivity
24 | QVQLVESGGGLVQAGGSLRLSCAASGITYTDYDLGCYRQAPGKERELVAAISNGGGSTYYADSVKGRFTISRDNAKNTVYLQMNSLKPEDTGVYYWAAERVPSWWVEWGVAQWDDYWGQGTQVTVSS | low polyreactivity
25 | QVQLVESGGGLVQAGGSLRLSCAASGITYYRYTMGWYRQAPGKDRELVASINWSGTRTYYADSVKGRFTISRDNAKNTVYLLMNSLKPEDTAVYYCAAKGAQGTSRRWFDYWGQGTQVTVSS | high polyreactivity
26 | QVQLVESGGGLVQAGGSLRLSCAASGIYSYVMGWYRQAPGKERELVAAISGTGGRTYYADSVKGRFTISRDNAKNTVYLQMNSLKPEDTAVYYCAARGIYQPKTFDYWGQGTQVTVSS | high polyreactivity
27 | QVQLVESGGGLVQAGGSLRLSCAASGKIFFRYTLGWYRQAPGKERELVAAISASGGSTYYADSVKGRFTISRDNAKNTVYLQMNSLKPEDTSVYYCAARILHYTSEYYYWGQGTQVTVSS | low polyreactivity
28 | QVQLVESGGGLVQAGGSLRLSCAASGKIFYEYTMGWYRQAPGKERELVAAISWSGVSTYYADSVKGRFTISRDNAKNTVYLQMNSLKPEDTAVYYCAADRGNDYWGQGTQVTVSS | low polyreactivity
29 | QVQLVESGGGLVQAGGSLRLSCAASGKTFPANAMGWYRPAPGKERELVADISVSDGSTYYADSVKGRFTISRDNAKNTVYLQMNSLKPQDTAVYYCNARKRPNFYVKSFTQIGGRFDYWGQGTQVTVSS | low polyreactivity
30 | QVQLVESGGGLVQAGGSLRLSCAASGLDYYAMGWYRQAPGKERELVAAIDWSGVSTYYADSVKGRFTISRDNAKNSVYLQMNSLKPEDTAVYYCAALYDGWPRVSYGLGEYGYWGQGTQVTVSS | low polyreactivity
31 | QVQLVESGGGLVQAGGSLRLSCAASGLIFANYAMGWYRQAPGKERELVAAITWSGGTTYYADSVKGRFTISRDNAKNTVYLQMNSLKPEDTAVYYCAAEVPYYQAAEYDYWGQGTQVTVSS | low polyreactivity
32 | QVQLVESGGGLVQAGGSLRLSCAASGLIFARNAMVWYRQAPGKERELVAAIAKRGGSTFYADSVKVRFTISRDNAKNTVYLQMNSLKPEDTAVYYCNARSSETWHGDYWGQGTQVTVSS | high polyreactivity
33 | QVQLVESGGGLVQAGGSLRLSCAASGLIFARYAMGWYRQAPGKERELVAAISSRGGGTYYADSVKGRFTISRDNAKNTVYLQMNSLKPEDTAVYYCNRLRGTPVGLSIGGYYYWGQGTQVTVSS | high polyreactivity
34 | QVQLVESGGGLVQAGGSLRLSCAASGLIFARYAMGWYRQAPGKERELVAAISSSGVSTDYADSVKGRFTISRDNAKNTVYLQMNSLKPEDTAVYYCAKRTGSRVRGGKYGYWGQGTQVTVSS | high polyreactivity
35 | QVQLVESGGGLVQAGGSLRLSCAASGLIFATTVLGWYRQAPGKERELVASITTSGSRTYYADSVKGRFTISRDNAKNTVYLQMNSLKPEDTAVYYCAAYPTYLTPSSPGYDYWGQGTQVTVSS | high polyreactivity
36 | QVQLVESGGGLVQAGGSLRLSCAASGLIFAVYAMGWYRQAPGKERELVAGISASAASTYYADSVKGRFTISRDNAKNTVYLQMNSLKPEDTAVYYCAADFYWFWTYGTLWYGYEYWGQGTQVTVSS | high polyreactivity
37 | QVQLVESGGGLVQAGGSLRLSCAASGLIFAWYAMGWYRQAPGKERELVATISWNGDRTYYADSVKGRFTISRDNAKNTVYLQMNSLKPEDTAVYYCAARFGSGFNYWGQGTQVTVSS | high polyreactivity
38 | QVQLVESGGGLVQAGGSLRLSCAASGLIFDDYAMGWYRQAPGKERELVAAISWSDGTTYYADSVKGRFTISRDNAKNTVYLQMNSLKTEDTAVYYCAAEEVSGWEYDYWGQGTQVTVSS | high polyreactivity
39 | QVQLVESGGGLVQAGGSLRLSCAASGLIFDPYAMGWYRQAPGKERELVADISSGGSTNYADSVKGRFTISRDNAKNTVYLQMTSLKPEDTAVYYCNKTIILDGYYFSLTLYDSWGQGTQVTVSS | low polyreactivity
40 | QVQLVESGGGLVQAGGSLRLSCAASGLIFDWYAMGWYRQAPGKERELVADISYSGGSTNYADSVKGRFTISRDNAKNTVYLQMNSLKPEDTAVYYCAADDYWTPFGYWGQGTQVTVSS | low polyreactivity
41 | QVQLVESGGGLVQAGGSLRLSCAASGLIFDYYAMGWYRQAPGKERELVASINNRGGSTFYADSVKGRFTISRDNAKNTVYLQMNSLKPEDTAVYYCNAVRRTGGHGDYWGQGTQVTVSS | high polyreactivity
42 | QVQLVESGGGLVQAGGSLRLSCAASGLIFDYYPMGWYRTAPGKERELVAAISYSGGRTYYADSVKGRFTISRDKAKNTVYLQMNSLKPEDTAVYYCNKVVLQPVIVDHDYWGQGTQVTVSS | low polyreactivity
43 | QVQLVESGGGLVQAGGSLRLSCAASGLIFESNAMGWYRQAPGKGRELVAAITTNGGSTYYADSVKGRFTISRDKGKNTVYLQMNSLKPEDTAVYYCAARFSYRSYDYWGQGTQVTVSS | low polyreactivity
